Reference: patent US6462173B1, “Inhibitors of phosphoserine and phosphothreonine-proline-specific isomerases” (Max-Planck-Gesellschaft zur Forderung der, priority 1997, dated 2002)

Columns and labels:
Type in all cases: biochemical
cyclin B/Cdc2 = biological target: T1, cyclin B/Cdc2 (Xenopus laevis, UniProt P35567); experiment: Activity of dephosphorylated-active cyclin B/Cdc2; settings: same conditions as Cdc25 assay
T1 construct: from tissue; host or cells: Xenopus interphase egg extract (Cdc2); recombinant GST cyclin B added
Description: (§1) Cdc2 was assayed using histone H1 as a substrate, as previously described in Murray, 1991; Lu and Hunter, (1995).
Therefore, we tested whether Pin1 could affect the physiological activity of Cdc25, which is to dephosphorylate and activate the cyclin B/Cdc2 complex. To generate the mitotically phosphorylated form of Cdc25, GST-Cdc25 was incubated in Xenopus mitotic extracts, affinity purified on glutathione agarose beads and eluted. […] This offers one explanation for the ability of Pin1 to inhibit mitotic entry.

mitotic GST-Cdc25 = biological target: T2, mitotic GST-Cdc25 (Xenopus laevis, UniProt P30309); experiment: Cdc25 activity assay (activation of cyclin B/Cdc2, H1 kinase); settings: 0.67 μM protein, 1 μM mitotic Cdc25
T2 construct: made in house
T2 sequence (P30309 1-550): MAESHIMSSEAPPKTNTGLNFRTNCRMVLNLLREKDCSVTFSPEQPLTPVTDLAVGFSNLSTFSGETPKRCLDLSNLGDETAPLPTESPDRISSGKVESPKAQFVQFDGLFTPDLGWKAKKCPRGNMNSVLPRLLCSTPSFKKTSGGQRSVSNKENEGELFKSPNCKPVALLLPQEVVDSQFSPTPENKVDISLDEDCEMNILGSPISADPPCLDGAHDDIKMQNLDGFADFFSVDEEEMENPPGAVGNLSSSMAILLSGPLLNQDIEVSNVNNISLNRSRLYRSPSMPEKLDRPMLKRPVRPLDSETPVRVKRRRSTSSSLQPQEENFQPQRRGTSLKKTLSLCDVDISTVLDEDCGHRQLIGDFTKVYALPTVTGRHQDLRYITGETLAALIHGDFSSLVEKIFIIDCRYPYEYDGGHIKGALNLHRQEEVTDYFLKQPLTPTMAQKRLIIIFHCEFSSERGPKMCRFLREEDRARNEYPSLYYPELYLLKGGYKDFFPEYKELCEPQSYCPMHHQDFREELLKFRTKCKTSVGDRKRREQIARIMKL
Description: as §1
A subthreshold concentration of GST cyclin B (10 μg) was added to 1 ml of Xenopus interphase extract for thirty min at room temperature (Solomon, M. J., M. Glotzer, T. H. Lee, M. Philippe and M. W. Kirschner, Cell 63:1013-1024 (1990). This was diluted 8 fold in XB+3 mM DTT, rotated for 1 h with 3 ml of GST agarose beads, washed 3 times in XBIP (XB+500 mM NaCl and 1% NP40+2 mM DTT), washed 2 times (once overnight) in EB (80 mM β glycerol phosphate, 15 mM EGTA, 15 mM MgCl2)+2 mM DTT, 500 mM NaCl and 1% NP40, and finally twice with EB+10 mM DTT. These Cdc25 assay beads were stored at 4° C. for up to 1 month. Mitotic GST-Cdc25 was purified by incubating 22 μg of GST-Cdc25, in a Xenopus mitotic extract for 30 min at 23° C., this was diluted 8 fold in XB and rotated with 50 μl of glutathione-Agarose beads (Sigma) for 1 hr at 4° C. The beads were washed 5 times in XB-IP, twice in XB+2 mM DTT and eluted in 25 μl XB+2 mM reduced GSH. The final concentration of Mitotic GST-Cdc25 was 0.36 mg/ml. […] Phosphoimager analysis of the H1 kinase assays were quantified by the Molecular Dynamics ImageQuant 3.3 software. […] The most reproducible way to quantify the Cdc25 activity in this assay was by determining the endpoint dilution of Cdc25 which could activate Cdc2. […]

Xenopus egg extracts = experiment: Entry into mitosis in Xenopus CSF egg extracts; settings: 10 or 40 μM, added 15 min after Ca2+
Description: Xenopus CSF extracts were prepared from unfertilized eggs, as previously described (Murray, 1991) and used immediately. To examine the effect of Pin1 on mitotic entry, a fresh CSF extract containing demembranated sperm (150/μl) and rhodamine tubulin (2 μg/ml) was activated by addition of 0.4 mM calcium chloride for 15 min, before the indicated concentrations of various Pin1 proteins were added and mitotic entry was followed for 2 h by nuclear morphology, nuclear envelope breakdown, spindle formation and Cdc2 activity, as described previously (Murray, A. W., Methods Cell Biol 36:581-605 (1991)). The cell cycle state of nuclei within the extracts were over 90% synchronous and typical nuclei were photographed.
To examine whether increasing the concentration of Pin1 has similar biological effects in Xenopus, Pin1 or Pin1 mutants were injected into one cell of 2 cell stage embryos and allowed the embryos to develop for 3 h (about 5 divisions). […] A similar concentration (4 μM final) of either Pin1 mutant had little effect on the cell cycle. […] In contrast, higher concentrations of the mutant proteins were needed to block the cell cycle (FIG. 1). […] In contrast, the same extracts containing 40 μM of either BSA or the mutant Pin1 proteins entered mitosis by 70 to 80 min as detected by nuclear envelope breakdown, spindle formation and high histone H1 kinase activity. […]

T1 sequence (P35567 whole entry): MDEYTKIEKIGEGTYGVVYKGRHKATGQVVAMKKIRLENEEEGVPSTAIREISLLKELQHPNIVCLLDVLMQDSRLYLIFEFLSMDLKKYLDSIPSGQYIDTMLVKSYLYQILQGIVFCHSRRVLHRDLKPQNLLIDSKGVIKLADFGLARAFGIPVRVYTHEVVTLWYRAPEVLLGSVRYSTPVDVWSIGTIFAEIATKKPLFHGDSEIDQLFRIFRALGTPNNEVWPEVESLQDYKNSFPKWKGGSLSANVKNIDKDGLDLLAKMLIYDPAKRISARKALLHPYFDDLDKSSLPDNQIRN
T1 sequence (P07818 whole entry partner): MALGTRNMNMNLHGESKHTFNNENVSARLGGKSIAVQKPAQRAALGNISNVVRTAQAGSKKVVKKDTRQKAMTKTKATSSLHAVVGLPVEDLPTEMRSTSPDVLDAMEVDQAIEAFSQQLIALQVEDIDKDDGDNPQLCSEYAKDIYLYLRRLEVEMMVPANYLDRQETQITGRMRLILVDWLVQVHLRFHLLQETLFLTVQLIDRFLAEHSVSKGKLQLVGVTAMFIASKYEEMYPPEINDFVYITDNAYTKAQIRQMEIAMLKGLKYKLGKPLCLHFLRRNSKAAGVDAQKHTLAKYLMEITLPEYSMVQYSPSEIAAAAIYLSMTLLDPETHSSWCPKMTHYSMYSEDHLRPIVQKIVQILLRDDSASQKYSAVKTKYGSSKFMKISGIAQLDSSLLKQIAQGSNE

Q: Which “effect on cdc2 activity” value (cyclin B/Cdc2) does the source give for “Pin1: essential mitotic peptidyl-prolyl cis-trans isomerase, recombinant protein” here?
A: Its value is “Neither Pin1 nor the Pin1 mutant had any effect on cdc2 activity”.

Q: And the “effect on Cdc25 activity” value (mitotic GST-Cdc25)?
A: Its value is “mitotic Cdc25 failed to activate the Cdc2 complex”.

Q: And the entry into mitosis (Xenopus egg extracts)?
A: The entry into mitosis was “completely blocked entry into mitosis”.
